To fix the notation:
B1: engineered scaffold protein S090 (designed binder)
chain: IKEEHSIRQNEMYLNPDQSGLFEFHLDGQPIFRVDMQKKRTKWQLEEFGRFASFEAQGALANIAVDKANLEIMTKRSNQSEAGSHSWQLIFVCEFHEGTESVRLSERCYYNQELSVSFNSDVGEYRAVTELGRPDAEYWNSQKDLLEQRRAAVDTYCRHNYGVGESFTVQRRGGSHHHHHHLE
B2: engineered scaffold protein S005 (designed binder)
chain: MIKEEHVIIQAEFYLNPDQSGEFMFDFDGDEIFHVDMAKKETVWRLEEFGRFASFEAQGALANIAVDKANLEIMTKRSNYTPMGDTRPRFLWQLKFECHFFNGTERVRLLERCIYNQEESVRFDSDVGEYRAVTELGRPDAEYWNSQKDLLEQRRAAVDTYCRHNYGVGESFTVQGGSHHHHHHLE
B3: engineered scaffold protein S068 (designed binder)
chain: GDTRPRFLWQLKFECHFFNGTERVRLLERCIYNQEESVRFDSDVGEYRAVTELGRPDAEYWNSQKDLLEQRRAAVDTYCRHNYGVGESFTVQRRVEPKVTVYPSKTQPLQHHNLLVCSVSGFYPGSIEVRWFRNGQEEKAGVVSTGLIQNGDWTFQTLVMLETVPRSGEVYTCQVEHPSVTSPLTVEWRASGGGGSGGGGSGGGGIKEEHVIIQAEFYLNPDQSGEFMFDFDGDEIFHVDMAKKETVWRLEEFGRFASFEAQGALANIAVDKANLEIMTKRSNYTPITNVPPEVTVLTNSPVELREPNVLICFIDKFTPPVVNVTWLRNGKPVTTGVSETVFLPREDHLFRKFHYLPFLPSTEDVYDCRVEHWGLDEPLLKHWEFDAPSGGSHHHHHHLE

The target of this experiment is TRPV1 disordered region polypeptide (UniProt Q8NER1). In words: modified sandwich ELISA, fluorescence grade by the table's key. A general note: In an ELISA, binding on a coated surface is turned into a signal by an enzyme label.
B1 returned a fluorescent signal (fluorescentsignal) of 100000 to 250000. As for B2, the fluorescent signal (fluorescentsignal) lay in the range of 100000 to 250000. In turn, B3 came in with a fluorescent signal (fluorescentsignal) of 50000 to 100000.

The values are drawn from US20250387450A1.
